# Results reported in the RNAGym collection of RNA variant scans (doi:10.1093/nar/gkz1192).
# B1: CPEB3 Ribozyme (parent)
# chain: UAACAGGGGGCCACAGCAGAAGCGUUCACGUCGCAGCCCCUGUCAGAUUCUGGUGAAUCUGCGAAUUCUGCUGUAUAUCUC
# Variants of: B1
# Assay: self-cleavage, relative activity (ratio to wild type); higher = more cleavage; in vitro, sequencing
# How it was run: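 Relative activity was defined as the cleaved/total read fraction for a variant divided by the same fraction for the unmutated ribozyme. CPEB3 self-cleaving ribozyme libraries were made by rounds of error-prone PCR, barcoded, and transcribed in vitro with T7 RNA polymerase for 5 hours at 37°C, and cleavage ran through transcription plus a 15 min DNase I step before EDTA. Illumina sequencing of template-switched reverse transcripts gave the reads, and DNA sequencing mapped the barcodes. Averages come from three batches, using variants with at least 5 reads.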
row,Variant,self-cleavage
1,C11G U60A,0.12
2,C11G U60G,0.21
3,C11G U60C,0.29
4,C11G C81U,0.86
5,C11G G42U,0.37
6,C11A G24A,0.09
7,C11U C32A,0.2
8,C11U A13G,0.43
9,C11U A13U,0.49
10,C11U A13C,0.09
11,C11G G63U,0.66
12,C11A U51C,0.38
13,C11U A35U,0.33
14,C11U A35G,1.27
15,C11A C23G,0.13
16,C11A C23U,0.06
17,C11G U51A,0.31
18,C11G U51C,0.41
19,C11G A15C,0.62
20,C11G A15U,0.39
21,C11G A15G,0.58
22,C11U C23U,0.24
23,C11A U67A,0.17
24,C11A U67C,0.09

row,Variant,self-cleavage
1,C11G C71U,0.16
2,C11G A56C,0.38
3,C11G A56U,0.28
4,C11A U31A,0.3
5,C11A U31C,0.23
6,C11G U49G,0.31
7,C11G U49A,0.6
8,C11U A56G,0.32
9,C11U A56U,0.33
10,C11U C14A,0.93
11,C11G U48C,0.11
12,C11A U74C,0.6
13,C11G U26C,0.24
14,C11G U26A,0.34
15,C11G U78C,0.43
16,C11G U78G,0.59
17,C11G U78A,0.8
18,C11U A15G,0.4
19,C11U A15U,0.35
20,C11U A15C,0.5
21,C11G U69A,0.11
22,C11G U69C,0.25
23,C11G U69G,0.14
24,C11G C17U,0.19

row,Variant,self-cleavage
1,C11U A64G,0.34
2,C11U A57G,0.33
3,C11U A18U,0.24
4,C11U A18C,0.39
5,C11U A18G,0.31
6,C11G C32U,0.16
7,C11G C32A,0.31
8,C11G U72C,0.69
9,C11A U48G,0.06
10,C11A U48C,0.32
11,C11A U25A,0.45
12,C11A U25C,0.25
13,C11A U69C,0.17
14,C11G A57U,0.39
15,C11G A57G,0.43
16,C11G A64U,0.16
17,C11G A64G,0.4
18,C11G G30U,0.09
19,C11A U26A,0.3
20,C11A U26C,0.18
21,C11U A77U,0.47
22,C11U A77G,0.41
23,C11U A21G,0.28
24,C11U,0.44

row,Variant,self-cleavage
1,C11G,0.52
2,C11A C44A,0.13
3,C11A U80C,0.5
4,C11U A45G,0.2
5,C11U A45U,0.27
6,C11G U76C,0.61
7,C11G U76A,0.49
8,C11G C44G,0.32
9,C11A C81G,0.39
10,C11A C81U,0.52
11,C11G U43C,0.29
12,C11G U43A,0.67
13,C11A G73C,0.87
14,C11A G73A,1.07
15,C11A G33A,0.07
16,C11G C39A,0.38
17,C11G C39G,0.11
18,C11G A47G,0.61
19,C11G G55A,0.14
20,C11G G55U,0.55
21,C11G A18G,0.54
22,C11G A18U,0.39
23,C11A U60C,0.2
24,C11U C38A,0.06

row,Variant,self-cleavage
1,C11A U58C,0.43
2,C11G C14U,0.93
3,C11G A77G,0.64
4,C11U C12U,0.56
5,C11G U80A,0.76
6,C11G U80C,0.55
7,C11G U41C,0.67
8,C11G U41A,0.25
9,C11G A65G,0.21
10,C11G G19C,0.48
11,C11G U74G,0.84
12,C11G U74C,0.91
13,C11G U74A,0.96
14,C11U A75G,0.32
15,C11U A75U,0.43
16,C11G A75G,0.41
17,C11G A75U,0.78
18,C11G A21G,0.3
19,C11G A21C,0.08
20,C11G U25A,0.1
21,C11G U25C,0.22
22,C11A U72A,0.15
23,C11A U72C,0.52
24,C11U A65G,0.2

row,Variant,self-cleavage
1,C11U A65U,0.33
2,C11G U67C,0.16
3,C11G U67G,0.2
4,C11G U67A,0.27
5,C11G U58A,0.39
6,C11U A20G,0.43
7,C11U A20U,0.28
8,C11A U49A,0.11
9,C11A U49G,0.3
10,C11G G36U,0.09
11,C11G U31A,0.33
12,C11G U31G,0.27
13,C11G U31C,0.22
14,C11A G46C,0.13
15,C11G A28G,0.24
16,C11G G46U,0.1
17,C11A C68A,0.14
18,C11G G70A,0.26
19,C11G G70U,0.23
20,C11U A47U,0.31
21,C11U A47G,0.36
22,C11A C62U,0
23,C11U A28U,0.34
24,C11A U54G,0.21

row,Variant,self-cleavage
1,C11A U54C,0.17
2,C11A U54A,0.43
3,C11G A13G,0.32
4,C11G A13U,0.75
5,C11A U66C,0.12
6,C11A U41A,0.33
7,C11A U41C,0.58
8,C11G C34G,0.38
9,C11G U54C,0.49
10,C11G U54A,0.28
11,C11G A20U,0.12
12,C11G A20G,0.56
13,C11G G73C,0.97
14,C11G A45G,0.35
15,C11G A45U,0.23
16,C11G A45C,0.07
17,C11G A35C,0.33
18,C11G A35G,0.56
19,C11G A35U,0.18
20,C11G U66C,0.21
21,C11G U66A,0.49
22,C11A U78C,0.31
23,C11A U78A,0.47
